Test results reported in IntAct's records for PubMed 14679199.

B1: SH3 and multiple ankyrin repeat domains protein 2 (Rattus norvegicus (Rat)), Q9QX74-4 (parent)
chain: MMSVPGGGAATVMMTGYNNGRYPRNSLYSDCIIEDKTVVLQKKDNEGFGFVLRGAKADTPIEEFTPTPAFPALQYLESVDEGGVAWQAGLRTGDFLIEVNNENVVKVGHRQVVNMIRQGGNHLVLKVVTVTRNLDPDDTARKKAPPPPKRAPTTALTLRSKSMTAELEELVDKASVRKKKDKPEEIVPASKPSRTAENVAIESRVATIKQRPTSRCFPAASDVNSVYERQGIAVMTPTVPGSPKGPFLGLPRGTMRRQKSIDSRIFLSGITEEERQFLAPPMLKFTRSLSMPDTSEDIPPPPQSVPPSPPPPSPTTYNCPRSPTPRVYGTIKPAFNQNPVAKVPPATRSDTVATMMREKGMFYRRELDRFSLDSEDVYSRSPAPQAAFRTKRGQMPENPYSEVGKIASKAVYVPAKPARRKGMLVKQSNVEDSPEKTCSIPIPTIIVKEPSTSSSGKSSQGSSMEIDPQATEPGQLRPDDSLTVSSPFAAAIAGAVRDREKRLEARRNSPAFLSTDLGDEDVGLGPPAPRMQPSKFPEEGGFGDEDETEQPLLPTPGAAPRELENHFLGGGEAGAQGEAGGPLSSTSKAKGPESGPAAALKSSSPASPENYVHPLTGRLLDPSSPLALALSARDRAMQESQQGHKGEAPKADLNKPLYIDTKMRPSVESGFPPVTRQNTRGPLRRQETENKYETDLSKDRRADDKKNMLINIVDTAQQKSAGLLMVHTVDIPVAGPPLEEEEDREDGDTKPDHSPSTVPEGVPKTEGALQISAAPEPAAAPGRTIVAAGSVEEAVILPFRIPPPPLASVDLDEDFLFTEPLPPPLEFANSFDIPDDRAASVPALADLVKQKKSDTPQPPSLNSSQPANSTDSKKPAGISNCLPSSFLPPPESFDAVTDSGIEEVDSRSSSDHHLETTSTISTVSSISTLSSEGGESMDTCTVYADGQAFVVDKPPVPPKPKMKPIVHKSNALYQDTLPEEDTDGFVIPPPAPPPPPGSAQAGVAKVIQPRTSKLWGDVTEVKSPILSGPKANVISELNSILQQMNRGKSVKPGEGLELPVGAKSANLAPRSPEVMSTVSGTRSTTVTFTVRPGTSQPITLQSRPPDYESRTSGPRRAPSPVVSPTELSKEILPTPPSAAAASPSPTLSDVFSLPSQSPAGDLFGLNPAGRSRSPSPSILQQPISNKPFTTKPVHLWTKPDVADWLESLNLGEHKETFMDNEIDGSHLPNLQKEDLIDLGVTRVGHRMNIERALKQLLDR

Variants of: B1
Settings: with cftr_mouse Cftr

Row | Variant | effect of a mutation on the interaction
1 | H109Q | with no effect
2 | H109R | disrupting interaction
3 | H109A | disrupting interaction
